Data as given in patent US20120100070A1.

Target: GLP-1R-GFP stably expressed on HEK293 cells

EC50 of peptide triggered cyclic AMP (cAMP) accumulation: 5 nM
Substance: GLP-1 (L-GLP-1, [Ala8]GLP-1-Ahx-Cys) (peptide)
